# According to US20250288643A1:
# T1: mouse CD47 (mouse) (UniProt Q61735)
# T1 sequence (looked up): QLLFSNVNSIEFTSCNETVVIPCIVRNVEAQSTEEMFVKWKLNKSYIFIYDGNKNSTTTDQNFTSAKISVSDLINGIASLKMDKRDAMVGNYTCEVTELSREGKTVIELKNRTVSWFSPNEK
# Target: T1, mouse CD47 (mouse)
# Assay: ELISA, coated mouse CD47 ECD Fc, supernatant, anti-c-Myc HRP
row,mCD47 binding (OD),Binder
1,0.116 OD,4RP13-4-5C (designed binder) hSIRPα IgV domain mutant: EEELQVIQPDKSVSVAAGESAILNCTVTSLIPVGPIQWFRGAGPARELIYNQKHQTFPRVTTVSEQTKRENRDFSISISNITPADAGTYYCVKFRKGSPDTEFKSGAGTELSVRAKPS
2,0.17 OD,4RP13-3-10B (designed binder) hSIRPα IgV domain mutant: EEELQVIQPDKSVSVAAGESAILHCTVTSLYPVGPIQWFRGAGPARELIYNQKGRRFPRVTTVSESTKRANMDFSISISNITPADAGTYYCVKFRKGSPDTEFKSGAGTELSVRAKPS
3,0.087 OD,2R-1-7B (designed binder) hSIRPα IgV domain mutant: EEELQVIQPDKSVSVAAGESAILHCIVTSLIPVGPIQWFRGAGPARELIYNQKILTFPRVTTVSESTKRENYDFSISISNITPADAGTYYCVKFRKGSPDTEFKSGAGTELSVRAKPS
4,0.149 OD,4RP13-5-6G (designed binder) hSIRPα IgV domain mutant: EEELQVIQPDKSVSVAAGESAILRCTVTSLTPVGPIQWFRGAGPARELIYNQKAKQFPRVTTVSESTKRENMIFSISISNITPADAGTYYCVKFRKGSPDTEFKSGAGTELSVRAKPS
5,0.082 OD,2R-1-4B (designed binder) hSIRPα IgV domain mutant: EEELQVIQPDKSVSVAAGESAILHCTVTSLAPVGPIQWFRGAGPARELIYNQKLDSFPRVTTVSESTKRESMDFSISISNITPADAGTYYCVKFRKGSPDTEFKSGAGTELSVRAKPS
6,0.152 OD,4RP13-3-7B (designed binder) hSIRPα IgV domain mutant: EEELQVIQPDKSVSVAAGESAILTCTVTSLYPVGPIQWFRGAGPARELIYNQKRQTFPRVTTVSESTKRFNMDFSISISNITPADAGTYYCVKFRKGSPDTEFKSGAGTELSVRAKPS
7,0.113 OD,2RP-1-3E (designed binder) hSIRPα IgV domain mutant: EEELQVIQPDKSVSVAAGESAILTCTVTSLWPVGPIQWFRGAGPARELIYNQKGQNFPRVTTVSESTKRFNMDFSISISNITPADAGTYYCVKFRKGSPDTEFKSGAGTELSVRAKPS
8,0.086 OD,2R-1-10B (designed binder) hSIRPα IgV domain mutant: EEELQVIQPDKSVSVAAGESAILHCTVTSLIPVGPIQWFRGAGPARELIYNQKNLIFPRVTTVSESGKRENMDFSISISNITPADAGTYYCVKFRKGSPDTEFKSGAGTELSVRAKPS
9,0.173 OD,4RP13-3-4D (designed binder) hSIRPα IgV domain mutant: EEELQVIQPDKSVSVAAGESAILHCTVTSLLPVGPIQWFRGAGPARELIYNQKSKVFPRVTTVSESTKRRNMDFSISISNITPADAGTYYCVKFRKGSPDTEFKSGAGTELSVRAKPS
